The results in this text go back to paper PMC3790952 (Chembiochem, 2013).

Substrate in the data set “purified protein”: CC(C)=CCC/C(C)=C/CC/C(C)=C/CC/C(C)=C/COP(=O)(O)OP(=O)(O)O
Description: purified protein. It is filed as biochemical, Streptomyces sp. Conditions: 10 mM MgCl2, 30 °C, GGDP 10-200 μM.

The data set “SEC” concerns the molecule itself. Description: SEC. For orientation: In gel filtration, larger molecules generally elute earlier.

B1: DtcycB (enzyme, Streptomyces sp. SANK 60404, UniProt M1VDX3 1-343, looked up)
chain: MDLPPALLSFYCPIASEVSPEHEAVAQEMYAWIHAMSLTSDNRQAKMLAQAGAGFNSYFTPRARGELARALSKYNVCAWIANGMVQEIRDPGTFGAMAARWARIMEEPATCPADGIPMDFALADAFSHIRRTLSPVKWQHFSAAQSHWMHGLAWENCLHQVKGLTVHDYLSFRYVMSGCFAAAAFAYAVPERHPSAEEWAHPKVRAAADAAMMVDALDNDRYSYLKESLTEADKKTIFAALRHENPALGREEVIVRGVQLRDRILTLYLTLRGELLCDASEGLRSYLTGLDLIIAGNLVFCADMGLRYGLPEGSVRTDAEPLDRTVAPPGIGAIDHWWAQAGA
Turning to B1, in the data set “purified protein”, the Km (in general, the concentration of substrate that gives half-maximal velocity) is 42.1 ± 7.3 µM and the kcat (commonly the maximal rate divided by the concentration of active sites) worked out at 0.0217 s⁻¹. For the same protein, the stoichiometry N (in general, the number of molecules, sites or subunits per partner or assembly) in the data set “SEC” came to 2.

B2: DtcycA (enzyme, Streptomyces sp. SANK 60404, UniProt M1V9Q0 1-371, looked up)
chain: MTDPAVTPLAFSIPQLYCPFPTAIHPEVDTLTRAGMDFMTHHGFCNTEADRLVVANIDAGAIVARWYPNPDFPVDRLQMVTDFLYLYFLIDDLRFEVINSDTGLAGPIALFAQHLDLWEYPQAHRREELDLFHQAIHDLASRMAELTTPTKAARMRRSINGWFLALLREIALFNDDHAVMAEEYLPIRVVTVASRLMIDVNGFICPAEVPGDEWYSLKVQAAAEAAMSVCLYDNELYSAGKEQWLKSRATAHDRRPRNLVALIQAQTGGSTEHALQEVAEYRNRTVCLYLNLRSQLEKTASPALLAYLSVLDGVISGNLDAHATSSRYHNPDGHHPHAIAFTPLRTTDECSARAHTPIAPPIAWWWEQLDQ
For B2, in the data set “purified protein”, the Km came out at 93.7 ± 8.4 µM and the kcat was found to be 0.0467 s⁻¹. Moreover, the “stoichiometry N” value in “SEC” worked out at 2.
